# From paper PMC5841405 (Nature Communications, 2018)
# Assays:
# [1] = target: the molecule itself; experiment: SEC-MALS; Superose 6 10/300 GL, 20 mM Tris pH 7.5, 100 mM NaCl, 1 mM DTT
# [2] = target: the molecule itself; experiment: ITC; titration of the protein into buffer (dilution); dimer to monomers; 20 mM HEPES pH 7.5, 100 mM NaCl, 0.25 mM TCEP
Protein,stoichiometry N [1],Kd [2]
"Spindly_(1–142) (domain or fragment, human, UniProt Q96EA4-1 1-142, looked up, human Spindly, UniProt Q96EA4-1, residues 1-142 (includes the CC1-Box); Cloned in pCold1; source: E. coli BL21 (DE3), purified (Ni-NTA, TEV cleavage, Superdex 75)) MEADIITNLRCRLKEAEEERLKAAQYGLQLVESQNELQNQLDKCRNEMMTMTESYEQEKYTLQREVELKSRMLESLSCECEAIKQQQKMHLEKLEEQLSRSHGQEVNELKTKIEKLKVELDEARLSEKQLKHQVDHQKELLS",2,
"Hook1_(11–238) (domain or fragment, human, UniProt Q9UJC3-1 11-238, looked up, human Hook1, UniProt Q9UJC3-1, residues 11-238 (Hook domain and CC1 region); In equilibrium between dimers and monomers; source: E. coli BL21 (DE3), purified (amylose column, TEV cleavage, gel filtration)) KLPLCDSLMIWLQTFNTASPCQDVKQLTSGVAMAQVLHQIDAAWFNESWLSRIKEDVGDNWRIKASNVKKVLQGIMSYYHEFLGQQISEALIPDLNQITECSDPVELGRLLQLILGCAINCEKKQEHIQNIMTLEESVQHVVMTAIQELMSKEILSSPPNDAVGELEQQLKRALEELQEALAEKEELRQRCEELDMQVTTLQDEKNSLVSENEMMNEKLDQLDGSFDD",,2100 nM
"BICD2_(1–98) (domain or fragment, human, UniProt Q8TD16-1 1-98, looked up, human BICD2, UniProt Q8TD16-1, residues 1-98 (includes the CC1-Box); Purified 'as described above' (pMAL-c2x); source: E. coli BL21 (DE3), purified (amylose column, TEV cleavage, gel filtration)) MSAPSEEEEYARLVMEAQPEWLRAEVKRLSHELAETTREKIQAAEYGLAVLEEKHQLKLQFEELEVDYEAIRSEMEQLKEAFGQAHTNHKKVAADGES",2,
"Hook1_(11–443) (domain or fragment, human, UniProt Q9UJC3-1 11-443, looked up, human Hook1, UniProt Q9UJC3-1, residues 11-443 (extends to the end of CC2); Dimeric by SEC-MALS; source: E. coli BL21 (DE3), purified (amylose column, TEV cleavage, gel filtration)) KLPLCDSLMIWLQTFNTASPCQDVKQLTSGVAMAQVLHQIDAAWFNESWLSRIKEDVGDNWRIKASNVKKVLQGIMSYYHEFLGQQISEALIPDLNQITECSDPVELGRLLQLILGCAINCEKKQEHIQNIMTLEESVQHVVMTAIQELMSKEILSSPPNDAVGELEQQLKRALEELQEALAEKEELRQRCEELDMQVTTLQDEKNSLVSENEMMNEKLDQLDGSFDDPNTVVAKKYFHAQLQLEQLQEENFRLEAAKDDYRVHCEELEKQLIEFQHRNDELTSLAEETRALKDEIDVLRATSDKANKLESTVEIYRQKLQDLNDLRKQVKTLQETNMMYMHNTVSLEEELKKANAARTQLETYKRQVQDLHVKLSSESKRADTLAFEMKRLEEKHEALLKEKERLIEQRDTLKETNEELRCSQVQQDHLNQT",2,
